# Measurements taken from publication PMC7969020.
# System: TDG (thymine DNA glycosylase), full length (Homo sapiens)
# Experiment: EMSA
# Conditions: EMSA: 5 nM 32P DNA or mononucleosome, TDG 0-1 uM, buffer NB (composition not in material) + 0.2 mM MgCl2, 5% glycerol, 37 C 20 min; 5% native PAGE at 4 C
row,Substance,Kd [nM]
1,"601 DNA (naked, 147 bp)",38
2,0-NCP-30 mononucleosome,59
3,30-NCP-30 mononucleosome,62
4,0-NCP-0 mononucleosome,185
